# Measured values taken from the nanobody polyreactivity screen of Harvey et al. (2022).
# Test: yeast display, Sf9 membrane polyspecificity reagent, FACS + sequencing; frameworks hold sequencing errors
# Outline: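 Polyreactivity labels are assigned by the sorting gate from which each nanobody was recovered. The gates were low and high (top ~1%), set on anti-HA fluorescence for expression and streptavidin fluorescence for reagent binding. Before sorting, galactose-induced (36–48 hours) yeast display cells were stained for 1 hour at 4 °C with 10% biotinylated, detergent-solubilized Sf9 membrane reagent.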
row,Sequence,polyreactivity (PSR sort gate)
1,QVQLVESGGGLVQAGGSLRLSCAASGITFYEYDMGWYRQAPGKERELVAAITSRGGSTYYADSVKGRFTISRDNAKNTVYLQMNSLKPEDTAVYYCNAVRGWLYVFSYPYWDDEYWGQGTQVTVSS,high polyreactivity
2,QVQLVESGGGLVQAGGSLRLSCAASGITFYGNAMGWYRQAPGKERELVAAINWGGTGTYYADSVKGRFTISRDNAKNTVYLQMNSLKPEDTAVYYCAAEVYTWGQGTQVTVSS,low polyreactivity
3,QVQLVESGGGLVQAGGSLRLSCAASGITFYGYAMGWYRQAPGKERELVASISYGGGSTYYADSVKGRFTISRDNAKNTVYFQLNSLKPEDTAVYYCAAQAATYYSGYYYWGQGTQVTVSS,high polyreactivity
4,QVQLVESGGGLVQAGGSLRLSCAASGITFYGYTMGWYRQAPGKERELVATITRGGSTYYADSVKGRFTISRDNAKNSVYLQMNSLKPEDTAVYYCAADLKGNYYLGIARYVLYYWGQGTQVTVSS,low polyreactivity
5,QVQLVESGGGLVQAGGSLRLSCAASGITFYIKAMGWYRQAPGKERELVAVIDSRGSSTFYADSVKGRFTISRDNAKNTVYLQMNSLKPEDTAVYYCAVEGYPGRYRDPGDLYYYWGQGTQVTLSS,low polyreactivity
6,QVQLVESGGGLVQAGGSLRLSCAASGITFYINAMGWYRQAPAKERELVAVIDSRGSSTFYADSVKGRFTISRDNAKNTVYLLMNSLKPEDTAVYYCAVEGYPGRYRDPGDLYYYWGQGTQVTLSS,low polyreactivity
7,QVQLVESGGGLVQAGGSLRLSCAASGITFYKYAMGWYRQAPGKERELVASISNGGNTNYADSVKGRFTISSDNAKNTVYLQMNSLKPEDTAVYYCAAGRQWYSYYRNDYWGQGTQVTVSS,high polyreactivity
8,QVQLVESGGGLVQAGGSLRLSCAASGITFYKYVMGWYRQAPGKEREFVAAITWSGDSTYADSVKGRFTISRDNAKNTVYLQMNSLKPEDTAVYYCAARTWSRRQREYDYWGQGTQVTVSS,high polyreactivity
9,QVQLVESGGGLVQAGGSLRLSCAASGITFYLNAMGWYRQAPGKDRELVADITVSGGSTYYADSVKGRFTISRDNAKNTVYLQMNSLKPEDTAVYYCAADLTISYSQEYYYWGQGTQVTLSS,low polyreactivity
10,QVQLVESGGGLVQAGGSLRLSCAASGITFYLYTMGWYRQAPGKERELVAAISWRGGGTYYADSVKGRFTISRDNAKNTVYLQMNSLKPEDTAVYYCATVRTYARNDYWGQGTQVTVSS,high polyreactivity
11,QVQLVESGGGLVQAGGSLRLSCAASGITFYPNGMGWYRQAPGKEREFVAAISSSGGSTYYADSVKGRFTISRDNAKNSVYLQMNSLKPEDTAVYYCAAQYYAMSYYGYGYWGQGTQVTVSS,low polyreactivity
12,QVQLVESGGGLVQAGGSLRLSCAASGITFYRNAMGWYRQAPGKERELVATITRGGSTYYADSVKGRFTISRDNAKNTVYLQMNSLKPEDTAVYYCNRAGGYRTTFYSWGQGTQVTVSS,high polyreactivity
13,QVQLVESGGGLVQAGGSLRLSCAASGITFYRYALGWYRQAPGKERELVAAISSSGGSTYYADSVKGRFTISRDNAKNTVYLQMNRLKPEDTAVYYCNAYYSVEYYYWGQGTQVTVSS,high polyreactivity
14,QVQLVESGGGLVQAGGSLRLSCAASGITFYRYAMGWYRPAPGKERELVAAISSRGGRTYYADSVKGRFTISRDNEKNTVYLQMNSLKPEDTGVYYCAKGGIVGSTLEYDYWGQGTQVTVSS,high polyreactivity
15,QVQLVESGGGLVQAGGSLRLSCAASGITFYRYAMGWYRQAPGKERELVAAISWSGGSTYYADSVKGRFTFSRDNAKNTVYLQMNSLKPEDTAVYYCNKYIRYPFKRYGYWGQGTQVTLSS,high polyreactivity
16,QVQLVESGGGLVQAGGSLRLSCAASGITFYRYAMGWYRQAPGKERELVAAITGSGDSTYYADSVKGRFTISRDNAKNTVYLQMNSLKPEDTAVYYCNTDYGRRYDYWGQGTQVTVSS,high polyreactivity
17,QVQLVESGGGLVQAGGSLRLSCAASGITFYRYAMGWYRQAPGKERELVAAITRSVGRTYYADSVKGRFTISRDNAKNTVYLQMNSLKPEDTAVYYCAADSPYYRGDYYWGLGTQVTVSS,high polyreactivity
18,QVQLVESGGGLVQAGGSLRLSCAASGITFYRYVMGWYRQAPAKERELVAAITTGDSTSYADSVKGRFTISRDNAKNTVYLQMNSLKPEDTAVYYCAAVYYTALANYDYWGQGTQVTVSS,low polyreactivity
19,QVQLVESGGGLVQAGGSLRLSCAASGITFYSYAMGWYRQAPGKERELVAAITRGGSTYYADSVKGRFTISRDNAKNTVYLQMNSLKPEDTAVYYCAASPLGGYGYWGQGTQVTVSS,high polyreactivity
20,QVQLVESGGGLVQAGGSLRLSCAASGITFYVNAMGWYRQAPGKERELVAGIDSGGSTYYADSVKGRFTISRDNAKNTVYLQMNSLKPEDTAVYYCAARGSDYIRWYVGGRYGYWGQGTQVTVSS,low polyreactivity
21,QVQLVESGGGLVQAGGSLRLSCAASGITFYVNAMGWYRQAPGKERELVAVITFGGGSTYYADSVKGRFTISRDNAKNTVYLQMNSLKPEDTAVYYCAKDPTYSPYLPGPIFYYKEDYWGQGTQVTVSS,low polyreactivity
